Test results reported in paper PMC2114792.

Tests used:
[1] = target: mouse hexabrachion (mouse (endogenous in 3T3 cells)) (UniProt Q80YX1); experiment: rotary shadowing electron microscopy
[2] = target: rat hexabrachion (rat (endogenous in normal rat kidney cells)); experiment: rotary shadowing electron microscopy

Substance	stoichiometry N [1]	stoichiometry N [2]
mouse hexabrachion, Q80YX1 23-2110	6	–
rat hexabrachion	–	6
